Experimental data taken from the Human Domainome abundance scans (Beltran et al. 2025).
± gives the uncertainty stated by the source.

B1: Cold shock protein CspB, residues 1 to 66; numbered along this chain, P41016 (parent)
chain: MQRGKVKWFNNEKGYGFIEVEGGSDVFVHFTAIQGEGFKTLEEGQEVSFEIVQGNRGPQAANVVKL

Variants of: B1
Assay: abundance fitness (aPCA) (normalised: wild type 0, dead -1); higher = more abundant; growth selection in yeast, the domain comes from the species named
Details: Bacillus caldolyticus

Row | Variant | abundance fitness
1 | F9Y | -0.119 ± 0.061
2 | F9A | -0.303 ± 0.037
3 | F9W | -0.092 ± 0.043
4 | I51K | -0.026 ± 0.05
5 | I51P | -0.023 ± 0.05
6 | I51C | 0.031 ± 0.084
7 | I51M | 0.023 ± 0.044
8 | I51G | -0.079 ± 0.042
9 | I51E | -0.026 ± 0.048
10 | I51V | 0.009 ± 0.049
11 | I51H | -0.019 ± 0.082
12 | F17Q | -0.161 ± 0.042
13 | F17M | -0.139 ± 0.048
14 | F17S | -0.171 ± 0.029
15 | F17L | -0.171 ± 0.025
16 | F17C | -0.18 ± 0.052
17 | F17A | -0.159 ± 0.039
18 | F17R | -0.132 ± 0.032
19 | F17Y | -0.192 ± 0.048
20 | N55G | -0.064 ± 0.12
21 | N55S | 0.049 ± 0.092
22 | N55I | 0.059 ± 0.13
23 | N55P | -0.026 ± 0.15
24 | N55C | -0.089 ± 0.17

Row | Variant | abundance fitness
25 | N55R | -0.075 ± 0.094
26 | N55A | -0.035 ± 0.16
27 | F30W | -0.026 ± 0.051
28 | F30K | -0.016 ± 0.057
29 | F30D | -0.188 ± 0.068
30 | F30N | -0.07 ± 0.077
31 | F30H | -0.023 ± 0.067
32 | N62D | 0.189 ± 0.42
33 | G35W | -0.134 ± 0.044
34 | G35K | -0.112 ± 0.056
35 | G54W | -0.18 ± 0.036
36 | G54S | -0.026 ± 0.034
37 | G54A | -0.028 ± 0.061
38 | G54E | -0.106 ± 0.059
39 | G54R | -0.044 ± 0.037
40 | Q45A | 0.021 ± 0.042
41 | Q45R | -0.039 ± 0.035
42 | Q45W | -0.023 ± 0.034
43 | Q45V | -0.063 ± 0.039
44 | Q45P | -0.655 ± 0.051
45 | Q45E | -0.003 ± 0.047
46 | Q45H | -0.036 ± 0.077
47 | G44R | -0.013 ± 0.034
48 | G44C | 0.005 ± 0.052

Row | Variant | abundance fitness
49 | N11H | -0.027 ± 0.07
50 | N11L | -0.003 ± 0.036
51 | N11T | -0.025 ± 0.044
52 | N11S | -0.033 ± 0.039
53 | N11I | -0.065 ± 0.083
54 | A61P | -0.828 ± 0.062
55 | A61T | -0.072 ± 0.039
56 | A61S | 0.008 ± 0.04
57 | A61F | -0.06 ± 0.047
58 | A61K | 0.02 ± 0.046
59 | A61N | -0.061 ± 0.063
60 | A61Q | 0.012 ± 0.047
61 | A61H | -0.004 ± 0.072
62 | K13Q | -0.072 ± 0.052
63 | K13W | -0.089 ± 0.043
64 | K13M | -0.019 ± 0.042
65 | K13P | -0.154 ± 0.036
66 | K13E | -0.133 ± 0.05
67 | K13I | -0.065 ± 0.056
68 | K13Y | -0.03 ± 0.083
69 | K13A | -0.078 ± 0.058
70 | K13N | -0.106 ± 0.068
71 | F49C | -0.021 ± 0.089
72 | F49R | -0.968 ± 0.088

Row | Variant | abundance fitness
73 | F49T | -0.27 ± 0.045
74 | F49M | -0.002 ± 0.044
75 | F49S | -0.577 ± 0.045
76 | H29S | -0.345 ± 0.14
77 | H29Y | -0.149 ± 0.052
78 | V47I | 0.065 ± 0.14
79 | V47L | -0.332 ± 0.23
80 | K5S | -0.027 ± 0.034
81 | K5I | -0.037 ± 0.05
82 | K5C | -0.003 ± 0.049
83 | K5M | -0.069 ± 0.039
84 | K5Q | -0.056 ± 0.045
85 | K5H | 0.005 ± 0.065
86 | E43W | -0.045 ± 0.034
87 | E43N | 0.01 ± 0.076
88 | E43M | 0.022 ± 0.056
89 | E43Y | -0.017 ± 0.078
90 | E43G | 0.04 ± 0.04
91 | E43K | 0.059 ± 0.069
92 | E43T | 0.025 ± 0.052
93 | E43R | 0.032 ± 0.039
94 | L41T | -0.299 ± 0.037
95 | L41M | -0.01 ± 0.04
96 | L41A | -0.111 ± 0.041

Row | Variant | abundance fitness
97 | L41R | -0.625 ± 0.03
98 | L41F | -0.199 ± 0.047
99 | E21I | 0.034 ± 0.069
100 | E21A | 0.017 ± 0.048
101 | E21K | -0.017 ± 0.066
102 | E21W | -0.033 ± 0.044
103 | E21Q | -0.007 ± 0.066
104 | T31S | -0.011 ± 0.032
105 | T31H | -0.074 ± 0.077
106 | T31K | -0.066 ± 0.054
107 | T31Y | -0.3 ± 0.055
108 | T31R | -0.044 ± 0.028
109 | W8C | -0.046 ± 0.12
110 | W8G | -0.304 ± 0.2
111 | R56C | -0.097 ± 0.057
112 | R56Q | -0.044 ± 0.062
113 | R56F | -0.181 ± 0.05
114 | R56I | -0.143 ± 0.093
115 | R56D | -0.175 ± 0.079
116 | V20A | -0.003 ± 0.035
117 | V20H | 0.094 ± 0.14
118 | V20Y | -0.001 ± 0.061
119 | V20I | -0.014 ± 0.056
120 | V20S | -0.011 ± 0.035

Row | Variant | abundance fitness
121 | V20M | -0.018 ± 0.049
122 | G14C | -0.13 ± 0.081
123 | G14P | -0.91 ± 0.073
124 | G14F | -0.484 ± 0.06
125 | G14K | -0.06 ± 0.061
126 | G14V | -0.778 ± 0.04
127 | G14E | -0.359 ± 0.032
128 | G14A | -0.175 ± 0.035
129 | Q59I | -0.08 ± 0.063
130 | Q59S | -0.01 ± 0.028
131 | Q59M | -0.011 ± 0.044
132 | Q59K | 0.059 ± 0.055
133 | Q59P | -0.733 ± 0.081
134 | L66Y | -0.054 ± 0.12
135 | L66D | -0.101 ± 0.18
136 | L66P | -0.022 ± 0.043
137 | L66V | 0.025 ± 0.063
138 | L66C | -0.067 ± 0.084
139 | L66G | 0.005 ± 0.08
140 | L66E | -0.01 ± 0.12
141 | L66I | -0.044 ± 0.083
142 | K65N | -0.051 ± 0.057
143 | K65S | -0.015 ± 0.035
144 | K65E | -0.03 ± 0.084

Row | Variant | abundance fitness
145 | K65L | -0.052 ± 0.037
146 | K65G | 0.023 ± 0.074
147 | K65D | -0.019 ± 0.082
148 | I18M | -0.208 ± 0.039
149 | I18L | 0.015 ± 0.031
150 | I18A | -0.272 ± 0.039
151 | S24M | -0.019 ± 0.055
152 | S24L | -0.002 ± 0.033
153 | S24K | 0.015 ± 0.049
154 | S24N | 0.004 ± 0.081
155 | S24Q | -0.004 ± 0.055
156 | G23W | -0.057 ± 0.04
157 | G23D | 0.026 ± 0.073
158 | V63T | -0.432 ± 0.053
159 | V63P | -0.643 ± 0.052
160 | V63R | -0.71 ± 0.042
161 | V63N | -0.528 ± 0.073
162 | V63H | -0.771 ± 0.1
163 | V63M | -0.283 ± 0.05
164 | S48C | -0.047 ± 0.061
165 | S48P | -0.847 ± 0.061
166 | S48G | -0.005 ± 0.043
167 | S48Q | -0.007 ± 0.052
